Test results as given in the DeepSol protein solubility set.

assay: soluble on expression in E. coli; label from the status in PepcDB or PDB records

Soluble on expression in E. coli, not soluble:
MGSDKIHHHHHHMEVFMITKRPIYNQQLKCVAFEILSCRNVMLNEELTRQLYDLIYHTDTQLPLFVPFSLKKLLEQFETPINNPIILKLSADEIESVYSLTELQDSLFSIALLINTPQQLAWLNFAEYIGLTEQLMSKSDVTKVVQYSKAKNRKIIAYDLNQHVNFEKCKAMTMDYYCGDFLLNSIAEEGTEIAANKLNVLQLIQELQKEDCDLNEITHIIQADPLLSYQLLKLVNSVGFSSGPSIESIDQAVARLGIINLKKWVMLFSMKNISDKPIEVLESGLIRAHMAEELAKKSSNIFSQSAYTAGLLSILDCLLNKPMPALVEQITLAEEIKDALTNKSGPLGDLLSLVIAYEEGHWEEVTQLNINGIDLSQLYIDSLALVSQGTKIMSN, MGSDKIHHHHHHMEVKPFRPLIYRKEIDGMIAPPFDAITPKEEVELKRNKYNITYLTLPKGRDGIPHAKMLLQSWLENGVLIPMKEDVFIVLRQRFYVGDECINRYGLIAKVKVFPESGDVIPHERTFDMYVKERETLMDGISSQLEPIFLVTLKNDLPGYLKAITDGLKEDNTYFGPENVENFVYYINDKRKINKIISLLAEDKSIVADGHHRLQATKNIAARKSGGEREFWSYAMAYITSIHDPGVLVGGVNRVVSNKFRLDMNVLSKYFEINQVERLDETNINLFNGRLYSLKIRIPVYDNLIDASNDFILSKSASMNYTDIENEVIYTHDIYELMSLVNSGSYSFGIILPRWDKMKLIETLLSGRKLPQKSTYFYPKIPSGLAIDTALELRLS, MGSDKIHHHHHHMEVLRTENLKSYYILDIFGKKRVVKAVDDVNISIMENEIYGIAGESGCGKSTLLRALFAAIEPPQRIVGGKVLYRENGKEVDVYSLSDEERRRLRWSFISYVPQGSMSVLNPVVKIKETFKDFIESHTTGKTKEEAYEMAKEHIKELGLPIEILNAYPHQLSGGMRQRVTIALATVLSPKVIIADEPTTALDVVTQRGVVQLLKEIQSSRQNTIILVTHDMGVHANVTDRIAIMYAGKIIEEGKTEEIFENPMHPYTKYLIYSLPKFGDKGRRESAPGSPPSLADLPPGCSFHPRCPHAFDRCKKEVPPLKEYLPGHRVACWLVEEGKNAAS, MGSDKIHHHHHHMEVQLPKIKTVRVMLAGMTAQQESVFKMAFKMHNTTRYETVSPSDGSAVPDLVLADTDAEGGFELWKELAGRYKAIPVAVCSEKVPDSEVPYLPKPIRFETLFPMLRKLLQGENVYGKSFIAPADRSAKNNGNVQRTVTIRQFNPNKGLLGALRFAEKNRQDIAILHGNKPVLNCFPLDTTGFADRKCVKTRRIVQRRKFAGQLQDCSR, MGSDKIHHHHHHMFFIRVDSNQTISGGHIMRCLAIAKALIINGKDVTFLIADDNPVEVLKQNRVSYVILNSDWQDLMSDLEQTIKVLSQENDPYLLIDTYCITKEYVEGLKAYAKVGYLGSKSEYLGNLDFLINYSSYIDYNYYKNNYFNGTKLLLGISYAPLRDEFQNQEPHYREQVRNILITTGNTDNDGMVGLLLDRLRYLLKEKNIIANVIIGRMFNNKELLHVKYDDNSNVKLYENVSSMSTIMRNCDLAISANGTTIYELSAMAIPTISFAMVEEQVKSAEGLDALRVIDYCGTSYTDVNKCVKAIIDKALYYIENYDNRIRLAQNAHNLIDGNGCQKIIDELF, MGSDKIHHHHHHMFHTIDFSDIFSSDYSNKISFKKGEIIHSYRDYEEKTPQIGAILEGTAVLEGPTNEGRWMINALIGQHSLFGMESLLETKTAPELTEYRVRALENGTVLFIDREFLLNYLYANPQFFHLILDEVIVRYLFTSKNYKNINQAPIVKVTRILVEIIELLHLHQTEGAIELPVYVTQTFLADYCRSSRARVTEVLEELRESGLLLSKKPITISSHENLLNQIDSFQTGNGLLTR, MGSDKIHHHHHHMFIINELNKIVNEEVISFHMPGHKKGQVYKKLGYKDILKNLYKMDTTEILGTDNLHFPEGIIKNSQKKASRVFKSDYTCYLVNGSSCGIQSAIMSVCSPKSKIITNRDCHQSVINGCILGDIDIEYVPCEISEETNVLKGISISNVIDIIDKNLDAKAVLLTYPTYYGMTYDLEYICNYAHSKKMVVIVDEAHGAHLGLSERLPKTALEQGADIVVQSTHKTLPAFTQSSMIHIQGDRVDIDKILNMLRITESSSPSYLLLSSLELAVDIYENKGKELMEELLNNIITFKNKVDSNINIYDTNDKTKIFISSKNMGLTGYELENILRNKYNIQVELSNYYGVLLICTIGNTAEDFSSLETALNNVVKEDFKFEKLENKKYPVVIPKKILTPREAFYKTKKSVKIYDSIGKVCGECIVPYPPGISVISPGEVISKEIIDYLMFCHSKGMIVSGLKDVDLNFIQVIDLEDI, MGSDKIHHHHHHMFKRETKDFINIDPLQTGGKLTEEARQALLEWGDGYSVCDFCTTGRLDEIKTPPIHDFIHNQLPKFLGCDVARVTNGAREAKFAVMHSLAKKDAWVVMDENCHYSSYVAAERAGLNIALVPKTDYPDYAITPENFAQTIEETKKRGEVVLALITYPDGNYGNLPDVKKIAKVCSEYDVPLLVNGAYAIGRMPVSLKEIGADFIVGSGHKSMAASGPIGVMGMKEEWAEIVLRRSEKYKNKEVELLGCTARGATIITLMASFPHVRERIKRWDEEVEKARRFAAEMEKLGIKQLGDNPHNHDLMFFHAEVLYEISKKAKGGRFFLYRELKSRKIHGIKPGLTRYFKLSTYGLSDEEVDYVLNAFKEIIEKYS, MGSDKIHHHHHHMFLEKLVEMARGKGKKLAVAAANDDHVIEAVYRAWRERVCEPVLFGPEEEITRIIEELVPEWKNPQIIDCPPEEAGRLAVEAVSKGECDFLMKGKIKTGDLMKIYLDERYGLRTGKTMAMVSVMEIPDFPRPLIISDPGMLISPTLEQKVDMIEHCVRVANVMGLETPKVAVVGAIEVVNPKMPITMEAAILSKMNQRGQIKGCIVDGPFALDNVVSEEAAKKKGIQSPVAGKADILILPDIEAANILYKALVFLAKAKSASTILGGKVPVVLTSRADSEETKFYSIALSAVFA, MGSDKIHHHHHHMFLKNCWYVAAWSHEIDRTLQPQTFLGENVVLYRKQDGTPVALEDACPHRKLPLSDGALQGDTVECGYHGLTFDCAGACVAAPTQKDAIPKRATVKSYPVVDRYRFTWIWMGDPAEADPDLIFPIPNFDDPTWGKTDGGVLDIDCNYLWVVDNLLDPSHVAWVHVTSFAGGGTDGAPLQVDKTEHGVQVTRWIFGEPPSPYYENLLAFQGPCDRLQHYEMTRPAMATNMSIYTPPGTGGYGRSPVENTFINISYNFMTPITEDKTRYFWFQHRNSEPDNVEMSETMNKGAVMAFHEDKAILEKVHTGMKHAVTPHIDLGLDAGAKTFRLGLQKAIETENA, MGSDKIHHHHHHMFLSELYRYPVKSGQAQSLKASPVGLLGLQGDRRWMVVEEENGRFLTQRAWPQLGQIDASDDDSGQLLLQAPGQAPLRVPVPPADDALRGVTIWRDTLRVPDAGDAAAAWLSELLGKAVRLVHCPEQRARYLPNGYGLNSDRAAFPDGFPLLLIGQGSLDELNRRIGRPMSMRRFRPNLVVQGAEPFAEDGWKRIRIGSLVFRVLKPSVRCIFTTIDPVTGERSADREPMATLKTFREKEGDVLFGQNLAVDGSGWLEVGMEVEILE, MGSDKIHHHHHHMFLSPYFLKQNQSISVSAQQASDFAKKIAQDFNPIHDVGAKRFCVPGDLLFALVLTQYGLSQSMKFTFAGMVGDGVELQFPEQVNDSFSICDNRDKTYLNVSRLGDISRCDAQTESFIRHYVAFSGHNFIDILMPLMKQHQVMINPDRPLVIYESMSFDLTTLDFVEVQLSLVQQELKIDGKRGDVTLHFELHSGDTLVGTGIKTLVMSGLRAYEEDQVQQMCAAYEGRKTDF, MGSDKIHHHHHHMFPTFFGISSIHGGQMAHSVSQAYLHISPPQVIGCHDGTTFNSYTNDDSARRYNSKSANKAPPAGQAFGCHESTTFKRTQQVNTPLDVIHPNSNIPNLPPPAFGKCPYPPWQHLDAANTIFIFPPLTVTLITNSRRVSAAAYDSNAIESVMQGTLRKMRTRLDEQGLANYQLLVGDNEVELNPFIGSSIKLVHTGNIFCCNCGKKTKKSYSQGHCFVCMKKLASCDMCIMKPETCHFAEGTCREPEWGEANCFVPHYVYLSNTSGLKVGITRHTQLPTRWIDQGATQGLPILKVSSRQLSGLIEVELAKMIADKTNWRAMLKGNADPLPLKQHAEELLPQIEQHIHSLAMAHGEYAIERLNEEIVAIDYPVSEFPTKIASHNFDKDPVVSGTLLGIKGQYLIFDTGVINLRKFTAYEVSFEAE, MGSDKIHHHHHHMFQPPLIAFLTDFGLEDAFVGVMKGVIATICREAQVIDLTHAISAQNVRQAAFHLDRSISYFPAETIFVCVVDPGVGTARRAIGVEAGPYRFIAPDNGLLTPVFERWADAKCHELTNPAYQLANPSATFHGRDLFSPAAAHLATGVPLNAFGSAIDVANCTRIELWQNKPCDNGKVWTGEVIATDHFGNLITSFEASMLSDGEDWTVKAGNAEPLPILRTYGEVEQGKPLAYIGSSGMIEIAIRNGSASAELRVGGGDEVELRKG, MGSDKIHHHHHHMFSEGENVAKATIPLALESAEKNLETSNENEKARRSSSDTAISVRGISKCYQIYDAPRDRLKQFIIPRLRLARQQSRQYFREFWALKGISFEVRKGETVGIIGRNGSGKSTLLQIICGTLTPTAGSVETRGRIAALLELGSGFNPEFTGRENIYMNGAVLGLTREEIDDRFDSIVSFADIGQFIDQPVKTYSSGMSVRLAFAVQAQVDPDILIVDEALSVGDVRFQAKCFARLQQLKDNGTSVLLVTHSSEQIVTHCSSALLLNDGMQFEIGEPRHVVNRYLDLLFGKERRNPDSPQAQPGDIFQEDKGYAESAYQLSTDSDVFQTRNGYNTHEYRWGDGTASILDFYLAANGEPYPSAITVGQTVTLAVSIKFHSDMWRPILGITIKTKDGVTISGTNSEMADLLDLQALVKKGAILVGKCSFQCRLGPGDYFVSLGLATRENDEIIPHDRRYDSIHFIVEPHNKFHGLADLALDLSISHIVESNQI, MGSDKIHHHHHHMFSIAIQQQQYKTYILSDETTGSQLEVVPERGGIITRWRVKGEEILYLDAERFTHPDLSVRGGVPILFPICGNLPDNSYTLNGQQYTLKQHGFARDLPWEVVEQTTKDTAALTLVLRSNEQTKAVYPFDFQLVFTYVLQGNTLEIRQEYQNLSSTQLPFSAGFHPYFLTGDKNQLEFDIPSQEYQDQQTKEVHPFNGNFDFNRDEMDFAFGHITSQSASVIDRNRQFKLTLDADDIFSMLVFWTLKGKEFYCLEPWSAPRNSLNTGEKLTVLEPGTSYKASVRLSASFF, MGSDKIHHHHHHMFTDYVLLLFSTTPRRAKGLFNVLRGRRTVSTLFAGLTAGYLDLLDSCHEVPLEDFMAATAALTENGQLTSTATGCWQLTQAGEHRQAKLRQTLYMPQNFEVFQTTDVRRFRIVSQLALQVVSELVHHDRHYYPVTTDPGIQAQVKQWLRQQSKVELGEQIHAALTAFLTSLADPELPTVFVQGITGYQEPGLTNEQLAAQLGRQPWEASLMHTDVICQWIAWIQRHPRDPFSQLLSVLTQASAISQSAEQTYQAFLKTQQLAAIAQTRHLKMSTVREHLLEVAIWSPDFPFEMVLNHEITQQLATIFAAQPDIANWSFQEAQAALPTLDFFEFRLFQIMRCQHVRR
